Results published in US20240327512A1 (DUKE UNIVERSITY, published 2024).

T1: human TREM2 (Triggering Receptor Expressed on Myeloid cells-2), wild-type (human, UniProt Q9NZC2 19-230)
T1 construct: whole, on cells; also called wt TREM2; human wild-type TREM2
T1 sequence (looked up): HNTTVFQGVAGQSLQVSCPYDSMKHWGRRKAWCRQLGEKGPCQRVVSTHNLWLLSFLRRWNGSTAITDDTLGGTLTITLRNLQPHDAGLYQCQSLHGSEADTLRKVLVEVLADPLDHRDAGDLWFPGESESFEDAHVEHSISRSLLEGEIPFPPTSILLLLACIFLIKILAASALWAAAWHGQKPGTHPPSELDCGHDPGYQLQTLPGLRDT


How the values were obtained:
[1] = target: T1, human TREM2 (Triggering Receptor …); assay: hybridoma supernatant screen: peptide ELISA and detection of TREM2 on the cell surface
Description: Human TREM2-reactive hybridoma supernatants are screened for their ability to detect TREM2 on the cell surface of HEK293 Flp-In cells stably overexpressing human wild-type TREM2. This procedure is described in Kleinberger, G., et al., TREM2 mutations implicated in neurodegeneration impair cell surface transport and phagocytosis. Sci Transl Med, 2014. 6(243): p. 243. In particular, HEK293 Flp-In cells either expressing human full-length TREM2 or empty vector (control) are incubated with the respective TREM2-reactive supernatants. Binding of TREM2-reactive supernatants is visualized using isotype-specific antibodies. A detailed description of the generation and selection of monoclonal antibodies against the TREM2 cleavage site is given in the Examples.
A peptide comprising the amino acid sequence of residues 145-155 (SEQ ID NO:2) of human TREM2 or residues 153-162 (SEQ ID NO:3) of human TREM2 was synthesized and coupled at the N-terminus to ovalbumin or biotin (Peps4LS, Heidelberg, Germany). Rats were immunized subcutaneously (s.c.) and intraperitoneally (i.p.) with a mixture of 50 μg OVA-coupled peptide in […] PBS, 5 nmol CpG2006 (TIB MOLBIOL, Berlin, Germany), and […] incomplete Freund's adjuvant. After 6 weeks, a boost without Freund's adjuvant was given i.p. and s.c. 3 days before fusion. Fusion of the myeloma cell line P3X63-Ag8.653 with the rat immune spleen cells was performed using polyethylene glycol 1500 according to standard procedure (Koehler and Milstein, Nature. 1975, 256:495-497). After fusion, the cells were plated in 96-well plates using RPMI 1640 with 20% fetal calf serum, penicillin/streptomycin, glutamine, pyruvate, and non-essential amino acids supplemented with HAT HybriMax medium supplement (Sigma,). Hybridoma supernatants were tested in an enzyme-linked immunoassay using biotinylated peptides (0.2 μg/ml) comprising the amino acid sequence of residues 145-155 of human TREM2 or residues 153-162 of human TREM2 bound to avidin-coated plates. After blocking with PBS/2% FCS, hybridoma supernatants were added for 30 min. After one wash with PBS, bound antibodies were detected with a cocktail of HRP-conjugated mAbs against the four rat IgG isotypes. HRP was visualized with ready to use TMB substrate (1-Step™ Ultra TMB-ELISA, Thermo).

[2] = target: T1, human TREM2 (Triggering Receptor …); assay: cell-based or functional assay

| Binder | binding result [1] | decrease of TREM2 cleavage [2] | increase of the level of mature TREM2 [2] |
| --- | --- | --- | --- |
| antibody clone 21A3 (antibody, V domains shown, Rat monoclonal IgG from hybridoma; also called TREMX antibody) VH: EVKLLESGGGLVQPGGSMRLSCAASGFTFTDFYMNWIRQPAGKAPEWLGLIRNKANGYTTQYNPSVKGRFTISRDNTQNMLYLQMNTLRGEDTATYYCARIGINNGGSLDYWGQGVMVTVSS VL: DILINQSPASLTVSAGEKVTMSCKSSQSLLYSEKNQDYLAWYQQKPGQSPKLLMYGASYRHTGVPDRFTGSGSGTDFTLTISSVQAEDLADYYCEQTYSYPYTFGAGTKLELK | binds |  |  |
| antibody clone 8A11 (antibody, V domains shown, Rat monoclonal IgG from hybridoma; also called TREMX antibody) VH: EVKLLESGGGLVQPGGSMRLSCAASGFTFTDFYMNWIRQPAGKAPEWLGLIRNKTKGYTTEYNTSVKGRFTISRDNTQNMLYLQMNSLRPEDTATYYCARIGVNNGGSLDYWGQGVMVTVSS VL: DILIIQSPASLTVSAGARVTMSCKSSQSLLYSENNQDYLAWYQQKPGQFPKLLIYGASNRHTGVPDRFTGSGSGTDFTLTISSVQAEDLADYYCEQTYSYPYTFGAGTKLELK | binds |  |  |
| antibody clone 1G6 (antibody, V domains shown, Rat monoclonal IgG from hybridoma; also called TREMX antibody) VH: EVKLLESGGGLVQPGGSLRLSCVASGFTFTDFYMNWIRQPAGKAPEWLGLIRNKANGFTTEYNPSVKGRFTISRDNTQHMLYLQMNTLRAEDTATYYCARIGINNGGSLDYWGQGVMVTVSS VL: DILINQSPASLTVSTGEKVTMSCKSSQSLLYSENKQDYLAWYQQKPGQFPKLLIYGASNRHTGVPDRFTGSGSGTDFTLTINIVQAEDLADYYCEQTYSYPYTFGAGTKLELK | binds |  |  |
| antibody clone 7A12 (antibody, V domains shown, Rat monoclonal IgG from hybridoma; also called TREMX antibody) VH: EVKLLESGGGLVQPGGSMRLSCAASGFTFTDFYMNWIRQPAGKAPEWLGLIRNKANGYTTQYNPSVKGRFTISRDNTQNMLYLQMNTLRGEDTATYYCARIGINNGGSLDYWGQGVMVTVSS VL: DILINQSPASLTVSAGEKVTMSCKSSQSLLYSEKNQDYLAWYQQKPGQSPKLLMYGASYRHTGVPDRFTGSGSGTDFTLTISSVQAEDLADYYCEQTYSYPYTFGAGTKLELK | binds |  |  |
| antibody clone 15C5 (antibody, V domains shown, Rat monoclonal IgG from hybridoma; also called TREMX antibody) VH: EVKLLESGGGLVQPGGSMRLSCAASGFTFTDFYMNWIRQPAGKAPEWLGLIRNKAYGYTTEYNPSVKGRFTISRDNTQDMLYLQMNTLRAEDTATYYCARIGINYGGSLDYWGQGVMVTVSS VL: DILINQSPASLTVSAGEKVTVSCKSSQSLLYSESNQDYLAWYQQKPGQFPKLLIYGASYRHTGVPDRFTGSGSGTDFTLTISSVQAEDLAHYYCEQTYSYPYTFGAGTKLELK | binds |  |  |
| antibody clone 9D10 (antibody, V domains shown) VH: EVQLVESGGGLVQPGRSLKLSCAASGFTFSDYGMAWVRQAPTKGLEWVASISNSGGRTFYRDSVKGRFTVSRDNAKSTLYLQMDSLRSEGTATYYCTTIGGGSTFDYWGQGVMVTVSS VL: DVVMTQTPPSLSVAIGQSVSISCKSSQSLVYSDGKTYLHWLLQSPGRSPKRLIYQVSNLGSGVPDRFSGTGSQKDFTLKISRVEAEDLGVYYCAQTTHFPPTFGSGTKLEIK |  | ~70% | ≤ 5 fold |
| antibody clone 13F4 (antibody, V domains shown) VH: EVHLVESGGGLVQPGRSLKLSCAASRFTFSNYGMAWVRQAPTKGLEWVASISNSGGRTFYRDSVKARFTISRDSAESTLYLQMDSLRSEDTATYYCTTIGGGSTFDYWGQGVMVTVSS VL: DVVMTQTPPSLSVAIGQSVSISCKSSQSLVYSDGKTYLHWLLQSPGRSPKRLIYQVSNLGSGVPDRFSGTGSQKDFTLKISRVEAEDLGVYYCAQTTHFPPTFGSGTKLEIK |  | ~70% | ≤ 5 fold |
| antibody clone 7F12 (antibody, V domains shown) VH: EVQLVESGGGLVQPGRSLKLSCAASGFTFSNYGMAWVRQAPTKGLEWVTSISYSGGRTYYRDSVKGRFTISRDNAKSTLYLQMDSLRSEDSATYYCTPVGGGSTFDYWGQGVMVTVSS VL: DVVMTQTPPSLSVAIGQSVSISCKSSQSLVYSDGKTYLHWLLQSPGRSPKRLIYQVSNLGSGVPDRFSGTGSQKDFTLKISRVEAEDLGVYYCAQTTHFPPTFGSGTKLEIK |  | ~70% | ≤ 5 fold |

The next lines start with the values.

| binding result [1] | decrease of TREM2 cleavage [2] | increase of the level of mature TREM2 [2] | Binder |
| --- | --- | --- | --- |
| binds |  |  | antibody clone 14D8 (antibody, V domains shown, Rat monoclonal IgG from hybridoma; also called TREMX antibody) VH: EVKLLESGGGLVQPGGSMRLSCAASGFTFTDFYMNWIRQPAGKAPEWLGLIRNKANGYTTVYNPSVKGRFTISRDNTQNMLYLQMNTLRGEDTATYYCARIGINNGGSLDYWGQGVMVTVSS VL: DILINQSPASLTVSTGEKVTMSCRSSQSLLYSEKNQDYLAWYQQKPGQFPKLLIYGASYRHTGVPDRFTGSGSGTDFTLTISSVQAEDLADYYCEQTYSYPYTFGAGTKLELK |
| binds |  |  | antibody clone 14D3 (antibody, V domains shown, Rat monoclonal IgG from hybridoma; also called TREMX antibody) VH: EVKLLEFGGGLVQPGGSMRLSCAASGFTFTDFYMNWIRQPAGRAPEWLGLIRNKTKGYTTEYNRSVKGRFTISRDNTQNMLYLQMNSLRPEDTATYYCARIGVNNGGSLDYWGQGVMVTVSS VL: DILIIQSPASLTVSAGARVTMSCKSSQSLLYSENNQDYLAWYQQKPGQFPKLLIYGASNRHTGVPDRFTGSGSGTDFTLTISSVQAEDLADYYCEQTYSYPYTFGAGTKLELK |
| binds |  |  | antibody clone 10C3 (antibody, V domains shown, Rat monoclonal IgG from hybridoma; also called TREMX antibody) VH: EVKLLESGGGLVQPGGSMRLSCAASGFTFTDFYMNWIRQPAGETPEWLGLIRNKTKGYTTEYNPSVKGRFTISRDNTQNMLYLQMNSLRPEDTATYYCARIGTNNGGSLDYWGQGVMVTVSS VL: DILIIQSPASLTVSAGARVTMSCKSSQSLLYSENNQDYLAWYQQKPGQFPKLLIYGASNRHTGVPDRFTGSGSGTDFTLTISSVQAEDLADYYCEQTYSYPYTFGAGTKLELK |
| binds |  |  | antibody clone 18F9 (antibody, V domains shown, Rat monoclonal IgG from hybridoma; also called TREMX antibody) VH: EVKLLESGGGLVQPGGSMRLSCVVSGFTFTDFYMNWIRQAAGKAPEWLGLIRNKVNGYRTEYNPSVKGRFTISRDNIQNMLYLQMNTLRAEDTATYYCARIGINNGGSLDYWGQGVMVTVSS VL: DILINQSPASLTVSAGEKVTMSCKSSQSLLYSENNQDYLAWYQQKPGQFPKLLIYGASNRHTGVPDRFTGSGSGTDFTLTISSVQAEDLADYYCEQTYSYPYTFGAGTKLELK |
|  | ~70% | ≤ 5 fold | antibody clone 14B3 (antibody, V domains shown) VH: EVQLVESGGGLVQPGRSLKLSCAASGFSFSNYGMAWVRQAPTKGLEWVASISNNGGRTFYRDSVKGRFTISRDNAKSTLYLQMHSLRSEDTATYYCTTIGGGSTFDYWGQGVMVTVSS VL: DVVMTQTPPSLSVAIGQSVSMSCKSSQSLVYSDGKTYLHWLLQSPGGSPKRLIYQVSNLGSGVPDRFSGTGSQKDFTLKISRVEAEDLGVYYCAQTTHFPPTFGSGTKLEIK |
